Molecular target: the molecule itself
Test: native MS

B1: Cse2 (natural protein)
chain: MADEIDAMALYRAWQQLDNGSCAQIRRVSEPDELRDIPAFYRLVQPFGWENPRHQQALLRMVFCLSAGKNVIRHQDKKSEQTTGISLGRALANSGRINERRIFQLIRADRTADMVQLRRLLTHAEPVLDWPLMARMLTWWGKRERQQLLEDFVLTTNKNA
binding result: binds
